From patent US20200308261 (published 2020)

T1: human Aβ 11pE-42 (human)
T1 chain: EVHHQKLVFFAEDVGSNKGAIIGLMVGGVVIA

T2: rodent Aβ 3pE-40 (rodent)
T2 chain: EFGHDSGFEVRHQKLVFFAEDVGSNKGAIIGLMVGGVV

T3: human Aβ 11pE-40 (human)
T3 chain: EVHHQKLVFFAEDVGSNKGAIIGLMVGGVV


What was measured:
[1] = biological target: T1, human Aβ 11pE-42; test: ELISA sandwich, up to 10 ng/mL
[2] = biological target: T2, rodent Aβ 3pE-40; test: ELISA sandwich, up to 10 ng/mL
[3] = biological target: human Aβ 1-42 (human); test: ELISA sandwich, up to 10 ng/mL
[4] = biological target: T3, human Aβ 11pE-40; test: ELISA sandwich, up to 10 ng/mL
[5] = biological target: human Aβ 1-40 (human); test: ELISA sandwich, up to 10 ng/mL
[6] = biological target: human Aβ 1-40 (human); test: SPR up to 50 nM

binding result [1] | binding result [2] | binding result [3] | binding result [4] | binding result [5] | binding result [6] | Binder
no binding | no binding | no binding | no binding | no binding |  | BAMB31 (antibody, V domains shown) VH: EIQLQQSGPELVKPGTSVKVSCKASGHVFTSYDMYWVKQSHGKSLEWIGYIDSDNGDTSYNQKFKGKATLTVDKSSSTAYMHLNSLTSEDSAVYYCAYYRYAMDYWGQGTSVTVSS VL: not shown
 |  |  |  |  | no binding | BAMB31_2a (mIgG2a) (antibody, V domains shown) VH: EIQLQQSGPELVKPGTSVKVSCKASGHVFTSYDMYWVKQSHGKSLEWIGYIDSDNGDTSYNQKFKGKATLTVDKSSSTAYMHLNSLTSEDSAVYYCAYYRYAMDYWGQGTSVTVSS VL: not shown
